Measurements published in patent US20200299384A1.
Where two headings read alike, the source gives them in different places.

Legend:
[1] = target: human CD3 expressed on cells (Jurkat cells; human CD4 T cells) (human) (UniProt P07766); assay: flow cytometry on human CD4 T cells
[2] = target: human CD3 expressed on cells (Jurkat cells; human CD4 T cells) (human) (UniProt P07766); assay: flow cytometry on Jurkat cells
[3] = target: human CD3 expressed on cells (Jurkat cells; human CD4 T cells) (human) (UniProt P07766); assay: flow cytometry on Jurkat cells, one site saturation fit
[4] = target: mouse CD3epsilon protein (mouse) (UniProt P22646); assay: ELISA, antigen coated on plate
Sequence of mouse CD3epsilon protein (mouse) (P22646 22-108 limits assumed): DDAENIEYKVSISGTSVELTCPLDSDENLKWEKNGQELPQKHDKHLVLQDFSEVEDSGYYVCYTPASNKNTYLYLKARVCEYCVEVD

[5] = target: Cynomolgus Monkey CD3 epsilon protein (Cynomolgus monkey) (UniProt Q95LI5); assay: ELISA, antigen coated on plate
Sequence of Cynomolgus Monkey CD3 epsilon protein (Cynomolgus monkey) (Q95LI5 22-117 limits assumed): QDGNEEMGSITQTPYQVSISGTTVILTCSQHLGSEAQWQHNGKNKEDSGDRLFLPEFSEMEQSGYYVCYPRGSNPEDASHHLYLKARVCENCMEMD

[6] = target: Human CD3 epsilon (CD3epsilon) protein (His Tag) (human) (UniProt P07766); assay: ELISA, antigen coated on plate
Sequence of Human CD3 epsilon (CD3epsilon) protein (His Tag) (human) (P07766 23-126): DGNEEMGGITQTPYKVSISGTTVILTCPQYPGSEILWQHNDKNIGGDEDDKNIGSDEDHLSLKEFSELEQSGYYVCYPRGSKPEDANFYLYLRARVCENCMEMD

[7] = target: human CD3 expressed on cells (Jurkat cells; human CD4 T cells) (human) (UniProt P07766); assay: flow cytometry on Jurkat cells, one site saturation fit; remark: listed apart in the source

Sequence of human CD3 expressed on cells (Jurkat cells; human CD4 T cells) (human) (P07766 23-207): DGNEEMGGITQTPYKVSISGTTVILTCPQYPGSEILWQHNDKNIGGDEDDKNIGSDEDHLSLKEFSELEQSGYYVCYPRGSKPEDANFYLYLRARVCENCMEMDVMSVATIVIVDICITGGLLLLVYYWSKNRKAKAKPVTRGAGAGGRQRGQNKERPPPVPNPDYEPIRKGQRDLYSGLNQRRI

| EC50 [1] | EC50 [2] | Best fit-Bmax [3] | Kd [3] | ELISA A450 [4] | ELISA A450 [5] | ELISA A450 [6] | Best fit-Bmax [7] | Kd [7] | EC50 [6] | Substance |
| --- | --- | --- | --- | --- | --- | --- | --- | --- | --- | --- |
| 0.202 nM | 0.2 nM | 6.06e-12 | 0.0277 nM | 0.24 A450 | 0.052 A450 | 0.048 A450 | 9.41e-11 | 0.129 nM | – | Benchmark antibody OKT3 |
| – | – | – | – | 0.179 A450 | 0.046 A450 | 0.046 A450 | – | – | – | Negative Control (Table 7) |
| – | – | – | – | – | – | – | – | – | 0.186 nM | WBP331-BMK1 (UCHT1) (antibody) |
